Experiment [1] deals with SecYEG in nanodiscs (titration with FtsY(NBD)) (E. coli) (UniProt P0AGA2). In words: other fluorescence titration.
Experiment [2] addresses nontranslating ribosomes (E. coli) (UniProt P0ADZ0). In words: co-sedimentation.
In experiment [3] the target is SecY(S111C)EG labeled with MDCC at position 111 of SecY (E. coli) (UniProt P0AGA2). In words: FRET or BRET. (In general: BRET reads energy transfer from a luciferase to a nearby fluorophore.)

The term Kd denotes the free concentration of one partner at which half of the binding sites on the other are occupied at equilibrium, for simple one-to-one binding. A lower Kd goes with a tighter complex.

With “FtsY(A26C) labeled with NBD at position 26 (from UniProt P10121 1-497) (receptor)”, the Kd in experiment [1] is 160 nM.

B1: SRP present in the ribosome and RNC preparations (complex)
chain: MFDNLTDRLSRTLRNISGRGRLTEDNVKDTLREVRMALLEADVALPVVREFINRVKEKAVGHEVNKSLTPGQEFVKIVRNELVAAMGEENQTLNLAAQPPAVVLMAGLQGAGKTTSVGKLGKFLREKHKKKVLVVSADVYRPAAIKQLETLAEQVGVDFFPSDVGQKPVDIVNAALKEAKLKFYDVLLVDTAGRLHVDEAMMDEIKQVHASINPVETLFVVDAMTGQDAANTAKAFNEALPLTGVVLTKVDGDARGGAALSIRHITGKPIKFLGVGEKTEALEPFHPDRIASRILGMGDVLSLIEDIESKVDRAQAEKLASKLKKGDGFDLNDFLEQLRQMKNMGGMASLMGKLPGMGQIPDNVKSQMDDKVLVRMEAIINSMTMKERAKPEIIKGSRKRRIAAGCGMQVQDVNRLLKQFDDMQRMMKKMKKGGMAKMMRSMKGMMPPGFPGR
As to B1, in experiment [2], the percent of ribosomes/RNCs with SRP bound is 25%.

B2: FtsY(F196C) labeled with BODIPY FL at position 196 (receptor)
chain: MAKEKKRGFFSWLGFGQKEQTPEKETEVQNEQPVVEEIVQAQEPVKASEQAVEEQPQAHTEAEAETFAADVVEVTEQVAESEKAQPEAEVVAQPEPVVEETPEPVAIEREELPLPEDVNAEAVSPEEWQAEAETVEIVEAAEEEAAKEEITDEELETALAAEAAEEAVMVVPPAEEEQPVEEIAQEQEKPTKEGFCARLKRSLLKTKENLGSGFISLFRGKKIDDDLFEELEEQLLIADVGVETTRKIITNLTEGASRKQLRDAEALYGLLKEEMGEILAKVDEPLNVEGKAPFVILMVGVNGVGKTTTIGKLARQFEQQGKSVMLAAGDTFRAAAVEQLQVWGQRNNIPVIAQHTGADSASVIFDAIQAAKARNIDVLIADTAGRLQNKSHLMEELKKIVRVMKKLDVEAPHEVMLTIDASTGQNAVSQAKLFHEAVGLTGITLTKLDGTAKGGVIFSVADQFGIPIRYIGVGERIEDLRPFKADDFIEALFARED
modifications: BODIPY FL (Bpy) on cysteine 196
B2 had a Kd in experiment [3] of 180 nM.

For the origin of these results see PMC4602035.
